In IntAct's records for PubMed 23478064:

B1: Eukaryotic translation initiation factor 4 gamma 2 (Homo sapiens), P78344-1 (parent)
chain: MESAIAEGGASRFSASSGGGGSRGAPQHYPKTAGNSEFLGKTPGQNAQKWIPARSTRRDDNSAANNSANEKERHDAIFRKVRGILNKLTPEKFDKLCLELLNVGVESKLILKGVILLIVDKALEEPKYSSLYAQLCLRLAEDAPNFDGPAAEGQPGQKQSTTFRRLLISKLQDEFENRTRNVDVYDKRENPLLPEEEEQRAIAKIKMLGNIKFIGELGKLDLIHESILHKCIKTLLEKKKRVQLKDMGEDLECLCQIMRTVGPRLDHERAKSLMDQYFARMCSLMLSKELPARIRFLLQDTVELREHHWVPRKAFLDNGPKTINQIRQDAVKDLGVFIPAPMAQGMRSDFFLEGPFMPPRMKMDRDPLGGLADMFGQMPGSGIGTGPGVIQDRFSPTMGRHRSNQLFNGHGGHIMPPTQSQFGEMGGKFMKSQGLSQLYHNQSQGLLSQLQGQSKDMPPRFSKKGQLNADEISLRPAQSFLMNKNQVPKLQPQITMIPPSAQPPRTQTPPLGQTPQLGLKTNPPLIQEKPAKTSKKPPPSKEELLKLTETVVTEYLNSGNANEAVNGVREMRAPKHFLPEMLSKVIILSLDRSDEDKEKASSLISLLKQEGIATSDNFMQAFLNVLDQCPKLEVDIPLVKSYLAQFAARAIISELVSISELAQPLESGTHFPLFLLCLQQLAKLQDREWLTELFQQSKVNMQKMLPEIDQNKDRMLEILEGKGLSFLFPLLKLEKELLKQIKLDPSPQTIYKWIKDNISPKLHVDKGFVNILMTSFLQYISSEVNPPSDETDSSSAPSKEQLEQEKQLLLSFKPVMQKFLHDHVDLQVSALYALQVHCYNSNFPKGMLLRFFVHFYDMEIIEEEAFLAWKEDITQEFPGKGKALFQVNQWLTWLETAEEEESEEEAD

Variants of: B1
Conditions: with if4a1_human EIF4A1, P60842
Chain of if4a1_human EIF4A1, P60842 (P60842 whole entry): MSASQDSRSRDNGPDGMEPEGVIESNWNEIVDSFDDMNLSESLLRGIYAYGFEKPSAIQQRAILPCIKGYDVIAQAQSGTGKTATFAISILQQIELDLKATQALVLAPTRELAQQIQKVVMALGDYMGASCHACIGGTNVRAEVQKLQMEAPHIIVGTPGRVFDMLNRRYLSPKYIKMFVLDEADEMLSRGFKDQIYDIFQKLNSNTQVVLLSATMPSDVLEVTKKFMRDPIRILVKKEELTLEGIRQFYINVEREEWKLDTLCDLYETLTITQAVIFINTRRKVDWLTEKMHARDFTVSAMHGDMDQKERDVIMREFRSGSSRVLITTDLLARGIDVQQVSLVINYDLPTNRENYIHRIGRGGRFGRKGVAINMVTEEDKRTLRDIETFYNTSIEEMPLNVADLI

Effect of a mutation on the interaction, disrupting interaction strength:
N86A
E125K
F296A
